Assay results: publication PMC2711036 (Molecular cell, 2009)
Values belong to the binder of their own block, whether it stands above or below them.

Tests used:
[1] = biological target: T1, Srs2^CΔ276 (S. cerevisiae, UniProt P12954 1-898); test: SPR
T1 sequence (looked up): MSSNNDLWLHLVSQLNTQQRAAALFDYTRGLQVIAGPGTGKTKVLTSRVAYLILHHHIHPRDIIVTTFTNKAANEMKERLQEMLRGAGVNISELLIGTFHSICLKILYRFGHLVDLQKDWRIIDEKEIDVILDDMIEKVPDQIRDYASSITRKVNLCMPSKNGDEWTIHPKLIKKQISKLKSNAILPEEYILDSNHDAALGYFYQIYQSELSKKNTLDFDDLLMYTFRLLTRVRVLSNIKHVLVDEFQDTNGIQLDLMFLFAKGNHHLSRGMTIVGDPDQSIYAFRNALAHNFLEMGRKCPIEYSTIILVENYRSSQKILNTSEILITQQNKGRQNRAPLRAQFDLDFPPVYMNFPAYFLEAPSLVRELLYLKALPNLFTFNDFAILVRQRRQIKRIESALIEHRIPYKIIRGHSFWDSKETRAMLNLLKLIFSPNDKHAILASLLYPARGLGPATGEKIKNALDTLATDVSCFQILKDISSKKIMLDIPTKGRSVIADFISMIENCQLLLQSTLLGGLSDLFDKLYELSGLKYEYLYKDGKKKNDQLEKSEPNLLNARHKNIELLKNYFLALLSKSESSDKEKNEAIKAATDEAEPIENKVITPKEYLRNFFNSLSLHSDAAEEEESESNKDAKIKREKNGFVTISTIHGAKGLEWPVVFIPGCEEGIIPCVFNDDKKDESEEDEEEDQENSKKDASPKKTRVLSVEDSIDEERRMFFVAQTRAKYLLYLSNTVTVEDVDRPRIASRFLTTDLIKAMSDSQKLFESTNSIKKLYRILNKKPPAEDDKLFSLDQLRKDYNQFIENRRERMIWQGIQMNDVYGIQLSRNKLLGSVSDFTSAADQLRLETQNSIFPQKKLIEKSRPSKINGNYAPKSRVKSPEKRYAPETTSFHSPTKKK

[2] = biological target: Rad51 (yRad51 wild type) (Saccharomyces cerevisiae, UniProt P25454 1-400); test: stopped-flow Cy3 fluorescence
[3] = biological target: Rad51-E221D (Saccharomyces cerevisiae, UniProt P25454 1-400, E221D); test: stopped-flow Cy3 fluorescence

Kd [1]: 15.2 ± 5 µM
B1: Rad51 (natural protein, S. cerevisiae (yeast Rad51, yRad51), UniProt P25454 1-400, looked up)
chain: MSQVQEQHISESQLQYGNGSLMSTVPADLSQSVVDGNGNGSSEDIEATNGSGDGGGLQEQAEAQGEMEDEAYDEAALGSFVPIEKLQVNGITMADVKKLRESGLHTAEAVAYAPRKDLLEIKGISEAKADKLLNEAARLVPMGFVTAADFHMRRSELICLTTGSKNLDTLLGGGVETGSITELFGEFRTGKSQLCHTLAVTCQIPLDIGGGEGKCLYIDTEGTFRPVRLVSIAQRFGLDPDDALNNVAYARAYNADHQLRLLDAAAQMMSESRFSLIVVDSVMALYRTDFSGRGELSARQMHLAKFMRALQRLADQFGVAVVVTNQVVAQVDGGMAFNPDPKKPIGGNIMAHSSTTRLGFKKGKGCQRLCKVVDSPCLPEAECVFAIYEDGVGDPREEDE

B2: 5'-Cy3-dT79 (ssDNA)
DNA: TTTTTTTTTTTTTTTTTTTTTTTTTTTTTTTTTTTTTTTTTTTTTTTTTTTTTTTTTTTTTTTTTTTTTTTTTTTTTTT
apparent K (half saturation) [2]: 1.55 ± 0.3 nM as printed
apparent K (half saturation) [3]: 2.17 ± 0.6 nM as printed
